According to patent US20250090677A1 (MULTITUDE THERAPEUTICS, published 2025):

Assays:
recombinant protein CDH6 [1] = biological target: T1, recombinant protein CDH6 (UniProt P55285 54-615); assay: ELISA, CDH6 coated; antibody 50 ng/mL
T1 construct: also called CDH6 recombinant protein; CDH6 antigen
T1 sequence (looked up): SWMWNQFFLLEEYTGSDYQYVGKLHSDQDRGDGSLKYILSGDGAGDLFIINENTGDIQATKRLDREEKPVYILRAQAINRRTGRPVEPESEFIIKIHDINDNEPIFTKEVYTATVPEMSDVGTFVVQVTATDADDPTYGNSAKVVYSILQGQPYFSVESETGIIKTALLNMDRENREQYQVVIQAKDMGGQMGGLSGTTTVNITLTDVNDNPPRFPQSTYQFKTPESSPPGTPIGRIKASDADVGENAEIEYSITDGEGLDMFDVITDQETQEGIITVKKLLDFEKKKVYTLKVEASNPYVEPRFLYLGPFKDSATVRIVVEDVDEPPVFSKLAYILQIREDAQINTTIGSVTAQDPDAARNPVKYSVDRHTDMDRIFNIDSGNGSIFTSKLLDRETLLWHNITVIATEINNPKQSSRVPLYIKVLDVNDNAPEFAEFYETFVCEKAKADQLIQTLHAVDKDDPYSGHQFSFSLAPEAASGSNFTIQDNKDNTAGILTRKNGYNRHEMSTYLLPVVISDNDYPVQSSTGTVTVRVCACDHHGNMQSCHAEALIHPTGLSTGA
Procedure: (§1) The recombinant protein CDH6 was coated on ELISA plates at 1 μg/mL overnight at 4° C.; after being washed with PBST, the plate was added with 10% fetal bovine serum, and the mixture was blocked at 37° C. for 1 h; the plate was added with 13 monoclonal antibodies of CDH6 with different dilutions (0.1 ng/mL to 100 ng/mL), and the mixture was reacted at 37° C. for 1 h; after being washed with PBST, the plate was added with horseradish peroxidase-labeled goat anti-human IgG secondary antibody (Goat anti Mouse (HRP), Thermo Fisher Scientific), and the mixture was reacted at 37° C. for 30 min; after the plate was repeatedly washed with PBST 5 times, the remaining droplets on the absorbent paper were patted as much as possible; each well of the plate was added with 100 μL of TMB (eBioscience) and placed in the dark at room temperature (20±5° C.) for 1.5 min; each well of the plate was added with 100 μL of 2 N H₂SO₄ stop buffer for stopping substrate reaction, OD values at 450 nm were read using a microplate reader, and the binding ability of the antibody to the target antigen CDH6 was analyzed.

recombinant protein CDH6 [2] = biological target: T1, recombinant protein CDH6; assay: ELISA, CDH6 coated; antibody 0.78 ng/mL
Procedure: as §1

recombinant protein CDH6 [3] = biological target: T1, recombinant protein CDH6; assay: ELISA, CDH6 coated; antibody 0.20 ng/mL
Procedure: as §1

recombinant protein CDH6 [4] = biological target: T1, recombinant protein CDH6; assay: ELISA, CDH6 coated; antibody 6.25 ng/mL
Procedure: as §1

recombinant protein CDH6 [5] = biological target: T1, recombinant protein CDH6; assay: ELISA, CDH6 coated; antibody 100 ng/mL
Procedure: as §1

recombinant protein CDH6 [6] = biological target: T1, recombinant protein CDH6; assay: ELISA, CDH6 coated; antibody 0.10 ng/mL
Procedure: as §1

recombinant protein CDH6 [7] = biological target: T1, recombinant protein CDH6; assay: ELISA, CDH6 coated; antibody 12.5 ng/mL
Procedure: as §1

recombinant protein CDH6 [8] = biological target: T1, recombinant protein CDH6; assay: ELISA, CDH6 coated; antibody 0.39 ng/mL
Procedure: as §1

recombinant protein CDH6 [9] = biological target: T1, recombinant protein CDH6; assay: ELISA, CDH6 coated; antibody 1.56 ng/mL
Procedure: as §1

recombinant protein CDH6 [10] = biological target: T1, recombinant protein CDH6; assay: ELISA, CDH6 coated; antibody 25 ng/mL
Procedure: as §1

recombinant protein CDH6 [11] = biological target: T1, recombinant protein CDH6; assay: ELISA, CDH6 coated; antibody 3.13 ng/mL
Procedure: as §1

recombinant protein CDH6 [12] = biological target: T1, recombinant protein CDH6; assay: ELISA, CDH6 coated at 1 ug/mL
Procedure: as §1

[13] = biological target: T2, CDH6 on the cell surface of OVCAR-3 cells (human ovarian cancer cells) (human, UniProt P55285 54-790); assay: flow cytometry (FACS) on OVCAR-3 cells, antibody titration, labelled secondary antibody, MFI
T2 construct: whole, on cells; also called CDH6-positive human ovarian cancer cell line OVCAR-3
T2 sequence (looked up): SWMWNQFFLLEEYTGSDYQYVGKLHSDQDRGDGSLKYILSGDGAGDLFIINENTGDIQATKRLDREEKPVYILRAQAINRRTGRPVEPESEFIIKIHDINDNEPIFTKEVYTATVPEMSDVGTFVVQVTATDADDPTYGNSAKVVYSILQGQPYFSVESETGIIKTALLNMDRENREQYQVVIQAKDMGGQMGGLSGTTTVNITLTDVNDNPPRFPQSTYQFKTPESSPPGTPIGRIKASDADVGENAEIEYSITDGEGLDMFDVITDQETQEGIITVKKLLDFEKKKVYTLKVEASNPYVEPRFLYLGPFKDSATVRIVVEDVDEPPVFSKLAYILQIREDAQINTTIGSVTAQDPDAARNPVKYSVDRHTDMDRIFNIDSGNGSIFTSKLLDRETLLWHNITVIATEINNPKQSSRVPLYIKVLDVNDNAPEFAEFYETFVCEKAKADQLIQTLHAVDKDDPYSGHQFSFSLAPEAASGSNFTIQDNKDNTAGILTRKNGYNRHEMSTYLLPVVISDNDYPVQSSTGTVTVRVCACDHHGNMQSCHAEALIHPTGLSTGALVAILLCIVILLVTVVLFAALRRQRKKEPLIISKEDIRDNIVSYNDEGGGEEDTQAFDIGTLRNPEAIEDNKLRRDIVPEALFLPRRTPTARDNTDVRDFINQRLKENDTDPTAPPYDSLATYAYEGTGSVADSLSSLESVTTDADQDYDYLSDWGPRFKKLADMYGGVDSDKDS
Procedure: The binding EC50 of the humanized antibodies on tumor cell were tested as follow. Human ovarian cancer cell line OVCAR-3(purchased from National Collection of Authenticated Cell Cultures) cell culture was maintained in vitro as independent monolayer cultures at 37° C. in an atmosphere of 5% CO₂. The cells were harvested using trypsin-EDTA partial digestion followed by centrifugation at 1000 rpm for 5 minutes. The cell was resuspended in cold PBS and serial dilution of Ch069707 and CL069707-H1L1, CL069707-H1L2, CL069707-H2L1 and CL069707-H2L2 antibodies were added. Ch069707 antibody was a chimeric antibody. The variable regions were the same as those of CL069707, and the constant region was the same as human IgG1 constant regions (SEQ ID NO: 70 and SEQ ID NO: 71). The cell solutions were mixed, incubated at 4° C. and washed with cold PBS prior to addition of secondary antibody conjugates (for detection purposes). After incubation at 4° C., the cells were washed with PBS, and then subjected to flow cytometry (FACS) analysis.

B1: CL069439 antibody (antibody, V domains shown)
VH: EVQLQQSGTELVRTGASVKISCKASGYSFTGYYIHWIKQSHGESLEWIGYISCFNGDTSYNQNFKDRATFNVDTSSSTAYMQFISLTSEDSAVYYCVRGRYGNFNYFDYWGQGTTLTVSS
VL: DIVLTQSPASLAVSLGQRATISCRASESVEFYGTSLMQWFQQKPGHPPQLLIYATSNVDSGVPARFSASGSGTDFSLNIHPVEEADIAMYFCQQSRRIPWTFGGGTKLEIK
notes: Mouse monoclonal antibody from hybridoma, purified from ascites with Protein A/G; also called #16; No. 16
OD450 (recombinant protein CDH6 [1]): 3.89 OD450
OD450 (recombinant protein CDH6 [2]): 0.647 OD450
OD450 (recombinant protein CDH6 [3]): 0.181 OD450
OD450 (recombinant protein CDH6 [4]): 2.82 OD450
OD450 (recombinant protein CDH6 [5]): 3.9 OD450
OD450 (recombinant protein CDH6 [6]): 0.106 OD450
OD450 (recombinant protein CDH6 [7]): 3.62 OD450
OD450 (recombinant protein CDH6 [8]): 0.255 OD450
OD450 (recombinant protein CDH6 [9]): 1.11 OD450
OD450 (recombinant protein CDH6 [10]): 3.69 OD450
OD450 (recombinant protein CDH6 [11]): 1.87 OD450
sensitivity (recombinant protein CDH6 [12]): ≤ 1 ng/mL

B2: CL069066 antibody (antibody, V domains shown)
VH: EVKLLESGGGLVQPGGSLKLSCAASGFDFSRYWMTWVRQAPGKGLEWIGEINPDSSTINYTPSLKDKFIISRDNAKNTLYLQMNKVTSEDTALYYCTRRPHYYGYFDSWGQGTTLTVSS
VL: DIVLTQSPASLAVSLGQRATISCRASESVEYYGTTLMQWYQQKPGQPPQLLIYAGSNVESGVPARFSGSGSGTEFSLNIHPVEEDDIGMYFCQQSRKVPWTFGGGTKLEIK
notes: Mouse monoclonal antibody from hybridoma, purified from ascites with Protein A/G; also called #4; No. 4
OD450 (recombinant protein CDH6 [1]): 2.11 OD450
OD450 (recombinant protein CDH6 [2]): 0.094 OD450
OD450 (recombinant protein CDH6 [3]): 0.05 OD450
OD450 (recombinant protein CDH6 [4]): 0.577 OD450
OD450 (recombinant protein CDH6 [5]): 2.38 OD450
OD450 (recombinant protein CDH6 [6]): 0.048 OD450
OD450 (recombinant protein CDH6 [7]): 1.08 OD450
OD450 (recombinant protein CDH6 [8]): 0.063 OD450
OD450 (recombinant protein CDH6 [9]): 0.17 OD450
OD450 (recombinant protein CDH6 [10]): 1.69 OD450
OD450 (recombinant protein CDH6 [11]): 0.3 OD450
sensitivity (recombinant protein CDH6 [12]): ≤ 6.3 ng/mL

B3: CL069463 antibody (antibody, V domains shown)
VH: EVQLVESGGGLVQPKGSLKLSCAASGFTFNTYALTWVRQAPGKGLEWVGRIKSKNKDYETYYADSVKDRFTISRNDSQSLLYLQMNNLKTEDTAIYYCVRQNWNYFDYWGQGTTLTVSS
VL: DIQMTQSPASLAASVGETVTITCRASENIYYSLAWYQQRQGKSPQLLIYNANSLKDGVPSRFSGSGSGTQYSMKINSMQPEDTATYFCQQAYDVPPTFGGGTKLEIK
notes: Mouse monoclonal antibody from hybridoma, purified from ascites with Protein A/G; also called #13; No. 13
OD450 (recombinant protein CDH6 [1]): 2.32 OD450
OD450 (recombinant protein CDH6 [2]): 0.211 OD450
OD450 (recombinant protein CDH6 [3]): 0.086 OD450
OD450 (recombinant protein CDH6 [4]): 0.975 OD450
OD450 (recombinant protein CDH6 [5]): 2.62 OD450
OD450 (recombinant protein CDH6 [6]): 0.073 OD450
OD450 (recombinant protein CDH6 [7]): 1.7 OD450
OD450 (recombinant protein CDH6 [8]): 0.139 OD450
OD450 (recombinant protein CDH6 [9]): 0.374 OD450
OD450 (recombinant protein CDH6 [10]): 1.8 OD450
OD450 (recombinant protein CDH6 [11]): 0.596 OD450
sensitivity (recombinant protein CDH6 [12]): ≤ 3.12 ng/mL

B4: CL069707-H1L2 (antibody, human IgG1, kappa, V domains shown)
VH: EVQLVESGGGLVQPGGSLRLSCAASGFTFTTYAMNWVRQAPGKGLEWVARIRIKNNNYATYYADSVTDRFTISRDDSKNSLYLQMNSLKTEDTAVYYCVRPDYGNYGLAYWGQGTLVTVSS
VL: DIQLTQSPSSLSASVGDRVTITCSASSSISSHYLHWYQQKPGKSPKLLIYRSFYLASGVPLRFSGSGSGTDFTLTISSLQPEDFATYYCQQDIVPLTFGQGTKLEIKR
notes: Humanized IgG1/kappa, produced in 293 cells
EC50 (read off the curve) [13]: ~1 nM

B5: CL069707 antibody (antibody, V domains shown)
VH: EVHLVESGGGLVQPKGSLKLSCVASGFTFTTYAMNWVRQAPGKGLEWVARIRIKNNNYATYYADSVTDRFTISRDDSQSMLYLQMNNLKTEDTAMYYCVRPDYGNYGLAYWGQGTLVTVSA
VL: EIVLTQSPTTMAASPGEKITITCSASSSISSHYLHWYQQKPGFSPKLLIYRSFYLASGVPLRFTGSGSGTSYSLTIGTMEAEDVATYYCQQDIVPLTFGAGTKLELK
notes: Mouse monoclonal antibody from hybridoma, purified from ascites with Protein A/G; also called #23; No. 23
OD450 (recombinant protein CDH6 [1]): 1.33 OD450
OD450 (recombinant protein CDH6 [2]): 0.305 OD450
OD450 (recombinant protein CDH6 [3]): 0.101 OD450
OD450 (recombinant protein CDH6 [4]): 1.01 OD450
OD450 (recombinant protein CDH6 [5]): 1.41 OD450
OD450 (recombinant protein CDH6 [6]): 0.069 OD450
OD450 (recombinant protein CDH6 [7]): 1.27 OD450
OD450 (recombinant protein CDH6 [8]): 0.165 OD450
OD450 (recombinant protein CDH6 [9]): 0.577 OD450
OD450 (recombinant protein CDH6 [10]): 1.18 OD450
OD450 (recombinant protein CDH6 [11]): 0.831 OD450
sensitivity (recombinant protein CDH6 [12]): ≤ 1.56 ng/mL

B6: CL069707-H2L1 (antibody, human IgG1, kappa, V domains shown)
VH: EVQLVESGGGLVQPGGSLRLSCAASGFTFTTYAMNWVRQAPGKGLEWVGRIRIKNNNYATYYADSVTDRFTISRDDSKNSLYLQMNSLKTEDTAVYYCVRPDYGNYGLAYWGQGTLVTVSS
VL: DIQLTQSPSSLSASVGDRVTITCSASSSISSHYLHWYQQKPGKSPKLLIYRSFYLASGVPSRFSGSGSGTDFTLTISSLQPEDFATYYCQQDIVPLTFGQGTKLEIKR
notes: as for B4
EC50 (read off the curve) [13]: ~1 nM

B7: CL069707-H2L2 (antibody, human IgG1, kappa, V domains shown)
VH: EVQLVESGGGLVQPGGSLRLSCAASGFTFTTYAMNWVRQAPGKGLEWVGRIRIKNNNYATYYADSVTDRFTISRDDSKNSLYLQMNSLKTEDTAVYYCVRPDYGNYGLAYWGQGTLVTVSS
VL: DIQLTQSPSSLSASVGDRVTITCSASSSISSHYLHWYQQKPGKSPKLLIYRSFYLASGVPLRFSGSGSGTDFTLTISSLQPEDFATYYCQQDIVPLTFGQGTKLEIKR
notes: as for B4
EC50 (read off the curve) [13]: ~1 nM
